From the supplement of paper PMC9170038

Test system: K4 kissing-loop RNA reporter
Experiment: apparent KD of K4 kissing-loop reporter; higher = weaker reporter binding
Settings: Eterna round: R107
Description: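 RNA-MaP round R107: designed RNA switches with theophylline, tryptophan, arginine or FMN aptamers are transcribed on-chip within common flanks. They are titrated with a labelled K4 kissing-loop RNA reporter in RNA-MaP buffer (100 mM Tris pH 7.5, 80 mM KCl, 4 mM MgCl2), without ligand or with the indicated ligand. Median apparent KD per design.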

[1] = input ligand: theophylline 20 uM
[2] = input ligand: tryptophan 2.4 mM
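Also: bound reporter read as fluorescence of individual clusters on recovered sequencing chips by microscopy, with normalized cluster intensities fitted with a binding model.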

Sequence | apparent KD of K4 kissing-loop reporter (input ligand: FMN 200 uM) | apparent KD of K4 kissing-loop reporter (input ligand: arginine 13.2 mM) | apparent KD of K4 kissing-loop reporter (input ligand: none) | apparent KD of K4 kissing-loop reporter [1] | apparent KD of K4 kissing-loop reporter [2]
AACGUUUUGUGAAGGAGCGCGAUAAGCAGUGAUGUUGCUUACUUACAAUUUAUAUUUUACACGCAGGUAGGUCGCACAAUACGUA [JR_SSArginiB_Sub017] | 207 nM | 160 nM | 190 nM | 163 nM | 173 nM
AACUGGGUUCGUGAUACCAGCUCACACAUGAGUGAUGUUGAUGUAGUGGGCAAAAUGUGGAGCCCUUGGCAGCACUGUGACCACG [XTheo-B3] | 422 nM | 358 nM | 411 nM | 378 nM | 371 nM
AACUGUCAAGGACAACAUUACUGCAGUGAUACCAGCAUCGAAAGAUGCCCUUGGCAGCACUAACUUGCAGUGAUGUUGCAAGUAA [BrourdMod 4 - Jieux - Exclusion - Theophylline A] | 313 nM | 245 nM | 256 nM | 225 nM | 264 nM
AAGCAGUCACUCGAACCCAUCGAAGAUGGGCGAGGACCGGUACGGCCGCCACUCGGAGUGAUGUUCCGCAGACUGCAAAAUAAAA | 679 nM | 265 nM | 339 nM | 249 nM | 164 nM
AAGCAGUCACUCGAAGCCAUCGAAGAUGGGCGAGGACCGGUACGGCCGCCACUCGGAGUGAUGUUCCGAAGACUGCAAAAUAAAA | 512 nM | 669 nM | 498 nM | 508 nM | 567 nM
AAGCAGUCAGGAUCGAAGAUCCUGCAAAACCGAGGACCGGUACGGCCGCCACUCGGAGUGAUGUUCCGAAGACUGCAAAAUAAAA [#SwitchBubble 6] | 191 nM | 152 nM | 213 nM | 150 nM | 64.5 nM
AAGCAUUCUUCGGAAUGCAGACCCGCUGAGGAGGAUAUGACGAAAGUCAGAAGGUUUCAGUGAUGUUGAGGCCUCCUCAAUGGUC [whbob_Ex_FMNA__2th182] | 305 nM | 256 nM | 293 nM | 285 nM | 291 nM
AAGGGCGAGGUAACGUGGAUAUCUCGUCGCAAGGAUAUCUGGAAACAGAGAAGGUGCGACAUCACCGGCAGUGAUGUUGCUGGGC | 298 nM | 185 nM | 233 nM | 227 nM | 181 nM
AAGGGCGGAACAACCUCGCCGGAUAGAGAUACCAGCCCAGCAAUGGGCCCUUGGCAGCUCACUGACCUCAGUGAUGUUGAGGUUC [Laar] | 243 nM | 220 nM | 248 nM | 188 nM | 232 nM
AAGGUCACUACUACAGUGAUGUUGUGGGAGCAGGAUAUGCAGAAAUGCAGAAGGGCUCGCUCCAAGUGACCGAAUGAAACAUUCA [Omei KL FMN A SS A v1] | 1170 nM | 876 nM | 839 nM | 1210 nM | 938 nM
AAGUCAUACAGAAGGAGCGUGUUUUAUAAUUUAUUUUCAUGAUCGAGUGAUGUUCGAUAUACACAGGUAGGUCGCUGUAUAAUAA [JR_SSArginiB_Sub007] | 102 nM | 146 nM | 121 nM | 146 nM | 103 nM
AAGUCAUAGGCAGGAUAUGCAUAGUAAUAAGGCCAUAUAUACGUAUAGAGUGAUGUUUUGUACCAGGCAGAAGGGCUACAUCAGU [FMN B Excl V7 (+3A)] | 550 nM | 506 nM | 594 nM | 643 nM | 470 nM
AAGUCAUAGGCAGGAUAUGCUUAGUAUUAAGGCCAUAUAUACGUAUAGAGUGAUGUUUUGUACCAGGCAGAAGGGCUACAUCAGU [FMN B Excl V6 (+A)] | 448 nM | 483 nM | 603 nM | 634 nM | 536 nM
AAGUCAUAUAGAAGGAGCGUGUUUUUUAAUUUAUUUUCAUGAUCGAGUGAUGUUCGAUAUACACAGGUAGGUCGCUGUAUAAUAA [hbob_SS_Arginine_B_2t141] | 126 nM | 145 nM | 127 nM | 179 nM | 112 nM
AAGUGAUGUUGUAGUGAUGUUGUGAUGUUGCAGGAUAUAUAGUGAUGUAGAAGGGUAUGUACUUAUUUGUUUUUUGAGUUAUGUU [zzazzrmullin] | 65.9 nM | 28.5 nM | 53.1 nM | 41 nM | 53.8 nM
AAGUGUCAUUAGACACACCGAUGUAUAAACUAGGAUAUGCUGAUAAGCAGAAGGAGUGAUGUUCCUUUCAUCAUCGGAAUUAAAU [#06 K4 FMN A Exclusion] | 301 nM | 161 nM | 160 nM | 175 nM | 144 nM
